B1: mTRAIL-R: N99/N122/N150Q (protein)
parent chain: MEPPGPSTPTASAAARADHYTPGLRPLPKRRLLYSFALLLAVLQAVFVPVTANPAHNRPAGLQRPEESPSRGPCLAGQYLSEGNCKPCREGIDYTSHSNHSLDSCILCTVCKEDKVVETRCNITTNTVCRCKPGTFEDKDSPEICQSCSNCTDGEEELTSCTPRENRKCVSKTAWASWHKLGLWIGLLVPVVLLIGALLVWKTGAWRQWLLCIKRGCERDPESANSVHSSLLDRQTSSTTNDSNHNTEPGKTQKTGKKLLVPVNGNDSADDLKFIFEYCSDIVPFDSWNRLMRQLGLTDNQIQMVKAETLVTREALYQMLLKWRHQTGRSASINHLLDALEAVEERDAMEKIEDYAVKSGRFTYQNAAAQPETGPGGSQCV
B2: mTRAIL-R: tunicamycin (protein)
parent chain: B1 parent chain

Experiments:
[1] = cell surface staining, flow cytometry; reducing immunoblot; details: glycan lost; control: WT mTRAIL-R
[2] = non-reducing SDS-PAGE immunoblot, transient overexpression; details: glycan lost; control: WT mTRAIL-R
[3] = streptavidin pulldown, non-reducing immunoblot; details: glycan lost; control: untreated MEFs
[4] = cell surface flow cytometry, 7 h TU; details: glycan lost; control: untreated MEFs

Row | Protein | expression_or_secretion [1] | oligomerisation [2] | oligomerisation [3] | localisation_or_trafficking [4]
1 | B1 | no change, the mean intensity of the signal was even weaker for the N99/N122/N150Q mTRAIL-R-expressing cells | changes |  | 
2 | B2 |  |  | changes | no change

Reference: article PMC5931557
